14 molecules from patent US20220267377A1 can be followed below.

T1: human Chemokine-like receptor 1, CMKLR1 (ProLink (PK) tagged GPCR in PathHunter β-Arrestin cells) (human) (UniProt Q99788)
T1 sequence: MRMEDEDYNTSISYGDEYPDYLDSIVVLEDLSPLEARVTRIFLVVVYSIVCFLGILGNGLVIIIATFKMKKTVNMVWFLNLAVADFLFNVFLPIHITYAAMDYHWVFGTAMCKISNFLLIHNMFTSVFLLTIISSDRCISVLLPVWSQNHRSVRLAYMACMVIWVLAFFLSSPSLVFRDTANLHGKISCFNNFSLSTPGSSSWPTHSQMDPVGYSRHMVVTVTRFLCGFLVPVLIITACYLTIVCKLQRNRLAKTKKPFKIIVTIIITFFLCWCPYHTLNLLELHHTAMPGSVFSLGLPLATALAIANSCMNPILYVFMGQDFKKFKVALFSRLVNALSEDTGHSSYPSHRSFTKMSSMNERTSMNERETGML

B1: OK-105 (peptide)
peptide: {Palmitoyl-PEG8′}-AGYF[Nle]PTNFA[Tic][dA]
B2: OK-101 (peptide)
peptide: {Palmitoyl-PEG8′}-GG[dY]FLP[dS]QF[dA][Tic]S
B3: OK-112 (peptide)
peptide: {Palmitoyl-PEG8′}-[dA]G[dY]F[Nle]P[dS]Q[fluorPhe][dA][Tic][dA]
modifications: also: fluorPhe9: fluorine position not given here
B4: OK-114 (peptide)
peptide: {Palmitoyl-PEG8′}-AG[dY]F[Nle]P[dS]QFA[Tic][dS]
B5: OK-111 (peptide)
peptide: {Palmitoyl-PEG8′}-[dA]G[dY]F[Nle]P[dS][Aad]F[dA][Tic][dA]
B6: OK-109 (peptide)
peptide: {Palmitoyl-PEG8′}-AG[dY]F[Nle]P[dS][Aad]FA[Tic][dA]
B7: OK-107 (peptide)
peptide: {Palmitoyl-PEG8′}-AAYF[Nle]PSQY[dA]F[dA]
B8: OK-106 (peptide)
peptide: {Palmitoyl-PEG8′}-AAFY[Nle]PTQFA[Tic][dA]
B9: OK-115 (peptide)
peptide: {Palmitoyl-PEG8′}-AGFF[Nle]PSQFA[Tic][dA]
B10: OK-103 (peptide)
peptide: {Palmitoyl-PEG8′}-AAYF[Nle]PSQFA[Tic][dA]
B11: OK-116 (peptide)
peptide: {Palmitoyl-PEG8′}-GGFF[Nle]PSQFA[Tic][dS]
B12: OK-104 (peptide)
peptide: {Palmitoyl-PEG8′}-AAFY[Nle]PSQYA[Tic][dA]
B13: OK-113 (peptide)
peptide: {Palmitoyl-PEG8′}-[Nva]G[dY]F[Nle]P[dS]QF[dA][Tic][dA]
B14: OK-102 (peptide)
peptide: {Palmitoyl-PEG8′}-[dA]G[dY]F[Nle]P[dS]QF[dA][Tic][dA]

Non-standard residues stand in square brackets, D forms with d. Primed or numbered codes have the meaning given here. No end group written: not given here. *: point of attachment. PEG8′ = polyethylene glycol linker with an average of 8 ethylene glycol units; fluorPhe = fluorinated phenylalanine; Palmitoyl = CCCCCCCCCCCCCCCC(=O)*; Tic = O=C(O)[C@@H]1Cc2ccccc2CN1; Aad = N[C@@H](CCCC(=O)O)C(=O)O; Nle = CCCC[C@H](N)C(=O)O; Nva = CCC[C@H](N)C(=O)O

For this test, the target named is T1, human Chemokine-like receptor 1, CMKLR1 (ProLink (PK) tagged GPCR in PathHunter β-Arrestin cells) (human).
In the case of B1, the EC50, PathHunter β-Arrestin recruitment assay, agonist format is 203 nM.
To B2 belongs 2.6 nM; to B3, 1.4 nM.
To B4 belongs less than 0.5 nM.
To B5 belongs 15 nM; to B6, less than 0.5 nM; to B7, 1710 nM.
With B8, the EC50, PathHunter β-Arrestin recruitment assay, agonist format came out at 32.5 nM.
To B9 belongs 12.4 nM; to B10, 43 nM; to B11, 63.9 nM.
To B12 belongs 2.6 nM; to B13, less than 0.5 nM; to B14, 2.3 nM.
